Results on three molecules are retold here after publication PMC9871560, “Truncated-semaphorin3A is a potential regulatory molecule to restore immune homeostasis in immune-mediated diseases” (Frontiers in Pharmacology, 2022).

B1: Parental semaphorin3A (P-sema3A) (ligand, human, UniProt Q14563 21-771, looked up)
chain: NYQNGKNNVPRLKLSYKEMLESNNVITFNGLANSSSYHTFLLDEERSRLYVGAKDHIFSFDLVNIKDFQKIVWPVSYTRRDECKWAGKDILKECANFIKVLKAYNQTHLYACGTGAFHPICTYIEIGHHPEDNIFKLENSHFENGRGKSPYDPKLLTASLLIDGELYSGTAADFMGRDFAIFRTLGHHHPIRTEQHDSRWLNDPKFISAHLISESDNPEDDKVYFFFRENAIDGEHSGKATHARIGQICKNDFGGHRSLVNKWTTFLKARLICSVPGPNGIDTHFDELQDVFLMNFKDPKNPVVYGVFTTSSNIFKGSAVCMYSMSDVRRVFLGPYAHRDGPNYQWVPYQGRVPYPRPGTCPSKTFGGFDSTKDLPDDVITFARSHPAMYNPVFPMNNRPIVIKTDVNYQFTQIVVDRVDAEDGQYDVMFIGTDVGTVLKVVSIPKETWYDLEEVLLEEMTVFREPTAISAMELSTKQQQLYIGSTAGVAQLPLHRCDIYGKACAECCLARDPYCAWDGSACSRYFPTAKRRTRRQDIRNGDPLTHCSDLHHDNHHGHSPEERIIYGVENSSTFLECSPKSQRALVYWQFQRRNEERKEEIRVDDHIIRTDQGLLLRSLQQKDSGNYLCHAVEHGFIQTLLKVTLEVIDTEHLEELLHKDDDGDGSKTKEMSNSMTPSQKVWYRDFMQLINHPNLNTMDEFCEQVWKRDRKQRRQRPGHTPGNSNKWKHLQENKKGRNRRTHEFERAPRSV
notes: human parental semaphorin3A; Secreted into the medium; The preparation holds monomer (~95 kDa), dimer (~160 kDa) and ~70 kDa fragments from cleavage by furin; also called parental sema3A; original sema3A; source: HEK293, serum-free culture medium, purified (Ni-NTA agarose)
B2: CD72 recombinant protein, extracellular part (amino acids 117-359) (domain or fragment, UniProt P21854 117-359, looked up)
chain: RYLQVSQQLQQTNRVLEVTNSSLRQQLRLKITQLGQSAEDLQGSRRELAQSQEALQVEQRAHQAAEGQLQACQADRQKTKETLQSEEQQRRALEQKLSNMENRLKPFFTCGSADTCCPSGWIMHQKSCFYISLTSKNWQESQKQCETLSSKLATFSEIYPQSHSYYFLNSLLPNGGSGNSYWTGLSSNKDWKLTDDTQRTRTYAQSSKCNKVHKTWSWWTLESESCRSSLPYICEMTAFRFPD
notes: CD72, extracellular part, amino acids 117-359; source: HEK293 stably expressing (lentiviral vector NSPI), purified (Ni-NTA agarose)
B3: Truncated-sema3A (T-sema3A) (domain or fragment, human, UniProt Q14563 21-516, looked up)
chain: NYQNGKNNVPRLKLSYKEMLESNNVITFNGLANSSSYHTFLLDEERSRLYVGAKDHIFSFDLVNIKDFQKIVWPVSYTRRDECKWAGKDILKECANFIKVLKAYNQTHLYACGTGAFHPICTYIEIGHHPEDNIFKLENSHFENGRGKSPYDPKLLTASLLIDGELYSGTAADFMGRDFAIFRTLGHHHPIRTEQHDSRWLNDPKFISAHLISESDNPEDDKVYFFFRENAIDGEHCGKATHARIGQICKNDFGGHRSLVNKWTTFLKARLICSVPGPNGIDTHFDELQDVFLMNFKDPKNPVVYGVFTTSSNIFKGSAVCMYSMSDVRRVFLGPYAHRDGPNYQWVPYQGRVPYPRPGTCPSKTFGGFDSTKDLPDDVITFARSHPAMYNPVFPMNNRPIVIKTDVNYQFTQIVVDRVDAEDGQYDVMFIGTDVGTVLKVVSIPKETWYDLEEVLLEEMTVFREPTAISAMELSTKQQQLYIGSTAGVAQLPLHR
notes: signal peptide in the construct; human semaphorin3A, amino acids 1-516 of the parental sema3A, with S257C to make an artificial disulfide dimerization site; Secreted into the medium; Without reducing agent it runs as a homodimer (~140 kDa double band) together with some monomer (~68 kDa); also called truncated semaphorin3A; source: HEK293 stably expressing (lentiviral vector NSPI), serum-free …

Data set [1] deals with the molecule itself. Briefly: SDS-PAGE without reducing agent, immunoblot; purified proteins on SDS-PAGE with or without dithiothreitol, immunoblotted with polyclonal goat anti-human sema3A; monomer to disulfide-linked dimer.
Data set [2] addresses B3. Kind of data set: ELISA; homemade ELISA; 5 ug/mL purified CD72 coated on a MaxiSorp plate overnight at 4 C; 0-25 ug/mL purified P- or T-sema3A added for 3 h at 4 C; detected with polyclonal goat anti-sema3A and anti-goat HRP; Kd from the one site total binding equation (GraphPad Prism). To be noted: both partners purified.
Data set [3] addresses B1. The description is as above. Conditions: both partners purified.

Regarding B1, the “stoichiometry N” value in data set [1] is 2. On to B2, for which the Kd in data set [2] is approximately 4.85 nM; in data set [3], approximately 7.3 nM. Consider B3, for which the “stoichiometry N” value in data set [1] amounted to 2.
